Molecular target: Wisteria floribunda agglutinin (Wisteria floribunda)
Assay: automated chemiluminescent enzyme immunoassay (CLEIA, HISCL); IgA1 standards captured on WFA-conjugated magnetic beads, detected with alkaline-phosphatase-labelled anti-IgA1 mAb; 42 °C

Substance: polymeric IgA1 standard cross linked with glutaraldehyde, with sialidase digestion
- CLEIA count, fold over nIgA1 not treated with sialidase: 700 fold
